Measured values taken from patent US20240287172A1, “PROTEIN BINDERS TO IRHOM2 EPITOPES” (SCIRHOM GMBH, priority 2019, published 2024).

T1: hiR2-FL-K536A-T7 (human) (UniProt Q6PJF5)
T1 sequence: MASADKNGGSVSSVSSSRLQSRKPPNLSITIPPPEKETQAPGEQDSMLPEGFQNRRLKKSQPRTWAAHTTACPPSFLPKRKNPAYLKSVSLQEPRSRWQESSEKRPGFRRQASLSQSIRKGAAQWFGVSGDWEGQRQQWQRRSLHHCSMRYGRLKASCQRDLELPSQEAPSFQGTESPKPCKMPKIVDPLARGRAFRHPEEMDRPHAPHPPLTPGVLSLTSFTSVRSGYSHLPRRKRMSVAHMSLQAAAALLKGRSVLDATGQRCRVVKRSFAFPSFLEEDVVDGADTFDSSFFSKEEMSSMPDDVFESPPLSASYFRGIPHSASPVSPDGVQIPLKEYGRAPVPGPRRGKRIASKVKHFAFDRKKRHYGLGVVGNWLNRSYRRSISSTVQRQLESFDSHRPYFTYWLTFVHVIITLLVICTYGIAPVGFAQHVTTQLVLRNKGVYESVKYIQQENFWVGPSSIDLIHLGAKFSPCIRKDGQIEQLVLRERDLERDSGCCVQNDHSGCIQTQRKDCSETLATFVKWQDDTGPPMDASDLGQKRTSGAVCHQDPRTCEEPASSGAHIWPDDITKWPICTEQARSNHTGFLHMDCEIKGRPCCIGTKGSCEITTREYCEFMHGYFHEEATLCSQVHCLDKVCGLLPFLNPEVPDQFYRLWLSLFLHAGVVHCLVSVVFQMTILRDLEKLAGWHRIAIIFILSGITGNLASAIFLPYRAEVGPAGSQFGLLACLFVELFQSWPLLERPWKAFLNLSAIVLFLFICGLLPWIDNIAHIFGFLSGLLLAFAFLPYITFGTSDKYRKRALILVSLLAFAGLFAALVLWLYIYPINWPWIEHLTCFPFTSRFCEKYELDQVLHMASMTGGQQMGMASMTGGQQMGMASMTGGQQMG

T2: hiR2-FL-H505R-T7 (human) (UniProt Q6PJF5)
T2 sequence: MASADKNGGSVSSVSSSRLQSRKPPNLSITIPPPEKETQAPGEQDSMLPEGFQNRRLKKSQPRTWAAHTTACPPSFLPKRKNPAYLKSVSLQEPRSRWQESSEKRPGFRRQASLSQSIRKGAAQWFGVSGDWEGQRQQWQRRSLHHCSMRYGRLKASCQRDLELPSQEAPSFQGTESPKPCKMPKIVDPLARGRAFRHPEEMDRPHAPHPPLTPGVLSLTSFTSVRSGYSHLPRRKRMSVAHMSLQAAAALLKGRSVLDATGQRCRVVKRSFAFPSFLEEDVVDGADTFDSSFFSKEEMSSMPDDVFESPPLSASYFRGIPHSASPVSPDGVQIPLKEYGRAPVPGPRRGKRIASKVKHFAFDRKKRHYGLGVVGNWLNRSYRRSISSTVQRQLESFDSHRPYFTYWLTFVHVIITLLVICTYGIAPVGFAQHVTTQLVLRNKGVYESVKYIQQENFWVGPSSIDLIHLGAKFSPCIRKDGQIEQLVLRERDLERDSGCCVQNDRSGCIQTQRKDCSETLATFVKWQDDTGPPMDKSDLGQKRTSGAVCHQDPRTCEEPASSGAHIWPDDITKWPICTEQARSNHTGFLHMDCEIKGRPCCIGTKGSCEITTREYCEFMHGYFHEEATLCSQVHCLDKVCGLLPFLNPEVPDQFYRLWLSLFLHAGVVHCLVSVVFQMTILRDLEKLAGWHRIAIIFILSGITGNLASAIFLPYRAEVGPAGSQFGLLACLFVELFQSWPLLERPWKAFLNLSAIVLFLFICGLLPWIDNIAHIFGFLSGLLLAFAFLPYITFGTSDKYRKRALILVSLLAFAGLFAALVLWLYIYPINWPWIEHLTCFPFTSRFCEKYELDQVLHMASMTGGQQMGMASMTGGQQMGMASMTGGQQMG


What was measured:
[1] = target: T1, hiR2-FL-K536A-T7 (human); experiment: FACS on MEF-DKO cells expressing the variant, 3 µg/ml antibody
[2] = target: T2, hiR2-FL-H505R-T7 (human); experiment: FACS, MEF-DKO cells, 3 µg/ml

Binder | loss of binding vs wild type [1] [%] | loss of binding vs wild type [2] [%]
antibody 34 (antibody, V domains shown) VH: QVTLKESGPGILQPSQTLSLTCSFSGFSLSTFSLGVGWIRQSSGKGLEWLAHIWWDDEKYYNPALKSRLTISKDTSKNQVFLKIANVDAADTATYYCARAYYSKSYYALDYWGQGTSVTVSS VL: DIQMTQSPSSLSASLGERVSLTCRASQEISGYLSWLQQKPDGTIKRLIYAASTLDSGVPKRFSGSRSGSDYSLAISSLESEDFADYYCLQYANFPFTFGSGTKLEIK | > 95 | 
antibody 22 (antibody, V domains shown) VH: QVTLKESGPGILQPSQTLSLTCSFSGFSLSTFGMGVGWIRQPSGKGLEWLAHIWWDDEKYYNSALKSRLTISKATSKNQVFLKIANVDTADTATYYCARISNYGSNYWYFNVWGTGTTVTVSS VL: QVVLTQSPALMSASPGEKVTMTCSAGSSVSYMYWYQQKPGSSPRVLIYDTSNLASGVPARFTGSGSGTSYSLTISRMEAEDAATYYCQQWNSYPLTFGAGTKLELK | > 95 | 

More lines, now with the values ahead:

loss of binding vs wild type [1] [%] | loss of binding vs wild type [2] [%] | Binder
> 95 |  | antibody 44 (antibody, V domains shown) VH: QVTLKESGPGILQPSQTLSLTCSFSGFSLSTFGMGVGWIRQPSEKGLEWLAHIWWDDDKYYNPALKSRLTISKDTSKNQIFLKITNVDTAETATYYCSRIGNYGSNYWYFDVWGTGTTVTVSS VL: QIVLTQSPAVMSASPGEKVTMTCTASSSVYYMYWYQQTPGSSPRLLIYDTSNLASGVPVRFSGSGSGTSYSLTISRMEAEDAATYYCQQWNTYPLTFGAGTKLELK
> 95 |  | antibody 42 (antibody, V domains shown) VH: QVTLKESGPGILQPSQTLSLTCSLSGFSLSTFGRGVGWIRQPSGKGLEWLAHIWWDDEKYYNPALKSRLTISKDTSKNQVFLRIANVDTADTATYYCARIQNYGSNYWYFDVWGTGTTVTVSS VL: LIVLTQSPAIMSASPGEKVTMTCGATSRISYMFWYQQKPGSSPRVLIYDTSNLASGVPVRFSGSGSGTSYSLTISRVEAEDVATYYCQQWNSYPLTFGAGTKLELK
 | > 60 | antibody 48 (antibody, V domains shown) VH: QVQLQQSGTELVRPGTSVKVSCKASGYAFTNYLIEWVKQRPGQGLEWIGVINPGSGFTKYNEKFKGKATLTADKSSSTVYMHLSSLTSEDSAVYFCARGLYRAMDYWGQGTSVTVSS VL: DIQMTQSPASQSASLGESVTITCLASQTIATWLAWYQQKPGKSPQLLIYGATTLADGVPSRFSGGGSGTKFSFKISSLQAEDFVSYYCQQLYSTPYTFGGGTKLEIK
